Assay results published in patent US8476407B2, “Metallopeptide catalysts” (William Marsh Rice University, priority 2009, dated 2013).
Marks after values point to notes of the source that are not given here. Residues, ends and D or L forms follow the SMILES beside them. No end group written: not given here.

Columns and labels:
[1] = Circular dichroism (CD) helicity of peptides and dirhodium adducts; format: physicochemical; conditions: for [θ]220, residual molar ellipticity: CD at 220 nm, water; for fH, helicity content: calculated from [θ]220, fH = ([θ]220 − [θ]c)/([θ]inf − [θ]c); for Rel. Hel %, relative helicity: calculated with [θ]inf = [θ]220 of EE4-Rh2(OAc)2; for fH (TFE), helicity content: calculated with [θ]inf = [θ]220 of EE4 in 100% TFE; for effect of dirhodium binding on helicity (in words): CD spectroscopy
Method: Peptides were prepared having 18 amino acids and a propensity toward helicity due to an alanine-rich sequence (Table 1). A complete turn of an α-helix requires about three or four amino acids, so carboxylate side chains (Asp, Glu) were placed in an i, i+3 or an i, i+4 relationship.
The peptides reacted with cis-Rh2(OAc)2(TFA)2, producing adducts with bridging dirhodium centers for both i, i+3 and i, i+4 carboxylate spacing. Circular dichroism (CD) spectroscopy assessed the effect of dirhodium binding on helicity.

[2] = system: K3a,eRh2; assay: Covalent modification of E3gX peptides with diazo reagent 1 catalysed by K3a,eRh2; format: biochemical; conditions: for krel, relative modification rate: initial rate of product formation at 1 hour, corrected for catalyst concentration; for modification of variable residue (in words): metallopeptide catalyst K3a,eRh2 and diazo reagent 1
Method: Binding the dirhodium center at positions a and e ensures that the metal will be held proximal to the coil-coil interface, and the a, e spacing serves to stabilize the necessary helical structure.
Covalent modification of variable residue g was then examined.
Relative modification rates (krel) were based on conversion at 1 hour, which corrects for catalyst loading and assumes first-order catalysis.

[3] = biological target: T1, bZip domain of c-Fos (Homo sapiens, UniProt P01100, A167K/D174T/K188A/T181D); assay: Covalent modification of c-Fos with diazo reagent 1 catalysed by metallopeptide; format: biochemical; conditions: for c-Fos residue modified: MS/MS fragmentation analysis; for conversion of c-Fos: 45 h, metallopeptide and diazo 1 added in small portions
T1 sequence (P01100 162-193 A167K/D174T/T181D/K188A limits assumed): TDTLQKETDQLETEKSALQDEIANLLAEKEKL
Method: FIG. 5. MALDI-TOF MS spectra of c-Fos (SEQ ID NO: 15) modification catalyzed by Jun(Rh2) (A) (SEQ ID NO: 14) and Max(Rh2) (B)(SEQ ID NO: 16). Reactions were 100 μM in substrate at pH 6.5. Metallopeptide and diazo 1 were added portion-wise to final concentrations of 200 μM and 5 mM, respectively. Sequences illustrate the expected alignment of the coiled coils and the site of modification (B) In the inset table, the ratio in parentheses indicates the ratio of singly to doubly modified product.
Metallopeptide Jun(Rh2) was prepared based on an affinity-optimized c-Jun variant with glutamate residues in g and […] positions. The target was the bZip domain of c-Fos, an oncogene product that regulates transcription by forming a heterodimeric coiled coil with c-Jun.
(§1) Purified Jun variant was metalated with Rh2(OAc)2(tfa)2 in aqueous buffer. […] In initial studies at 4° C., crude Jun(Rh2) directly from the metalation process could be used in modification reactions with activity identical to that of purified material, thus avoiding time-consuming and unnecessary material loss that accompanied isolation.
Catalytic activity was also investigated for a second metallopeptide based on the leucine-zipper Max.
For Jun(Rh2), MALDI-TOF MS/MS analysis established that Gln19 (position e) was modified. […] In the case of Max(Rh2), the dominant fragmentation pathway was cleavage of the modifying group.

[4] = Solubility on isolation; format: physicochemical; conditions: isolation after metalation in aqueous buffer
Method: as §1

[5] = biological target: T2, Fos (Homo sapiens, UniProt P01100, A167K/D174T/K188A/T181D); assay: Temperature-dependent folding of Fos-metallopeptide coiled coil; format: physicochemical; conditions: Fos-Max(Rh2) temperature-dependent folding
T2 sequence (P01100 162-193 A167K/D174T/T181D/K188A limits assumed): T1 sequence (P01100 162-193 A167K/D174T/T181D/K188A limits assumed)
Method: Amazingly, site-specific reactivity can be templated on molecular recognition in interactions with such low affinities that they are uncharacterizable by available methods. Because metallopeptide Jun(Rh2) has ≧100 μM affinity for Fos, reactions at 10 μM successful even though the desired Fos-Jun(Rh2) dimer is not the major species.

[6] = 50 mol % K3a,eRh2, 10 mM diazo 1 added in two portions, 50 μM substrate, pH 6.2
[7] = 20 mol % K3a,eRh2, 10 mM diazo 1 added in two portions, 50 μM substrate, pH 6.2

Molecule	[θ]220, residual molar ellipticity [1]	fH, helicity content [1]	Rel. Hel %, relative helicity [1]	fH (TFE), helicity content [1]	krel, relative modification rate [2]	effect of dirhodium binding on helicity (in words) [1]	further results
Ac-YGKAAAADAGADKAAAAK-NH2 [DD4G]	-1100 deg cm^2 dmol-res^-1	9	17%	11	–	–	–
N=C(N)NCCC[C@H](N)C(=O)O [Arg]	–	–	–	–	100	–	% conv. at 24 h [2, 6]: 73%
N[C@@H](CS)C(=O)O [Cys]	–	–	–	–	560	–	% conv. at 24 h ([2]; 10 mol % K3a,eRh2, 2.5 mM diazo 1, 50 μM substrate, pH 6.2, room temperature): 78%
NC(=O)CC[C@H](N)C(=O)O [Gln]	–	–	–	–	260	–	% conv. ([2]; 10 mol % K3a,eRh2, reaction time 6 hours, 2.5 mM diazo 1, 50 μM substrate, pH 6.2): > 95%
C[C@@H](O)[C@H](N)C(=O)O [Thr]	–	–	–	–	–	–	modification of variable residue (in words) [2]: not observed
Ac-YGKAAAADAAEAKAAAAK-NH2 [DE3]	-8000 deg cm^2 dmol-res^-1	29	52%	32	–	completely disrupt helicity	–
Ac-KAEAAAEAK-NH2 [sEE4]	-400 deg cm^2 dmol-res^-1	9	13%	8	–	–	–
Ac-YGKAAAADAADAKAAAAK-NH2 [DD3]	-5300 deg cm^2 dmol-res^-1	21	39%	24	–	completely disrupt helicity	–
Ac-YGKAAAAEAADAKAAAAK-NH2 [ED3]	-11400 deg cm^2 dmol-res^-1	38	70%	43	–	completely disrupt helicity	–
Ac-YGKAAAAEAGAEKAAAAK-NH2 [EE4G]	-1900 deg cm^2 dmol-res^-1	12	21%	13	–	–	–
Ac-YGKAAAAEAGADKAAAAK-NH2 [ED4G]	-1100 deg cm^2 dmol-res^-1	9	17%	10	–	–	–
CC[C@H](C)[C@H](NC(=O)[C@H](CCC(N)=O)NC(=O)[C@H](CCC(N)=O)NC(=O)[C@H](CCCNC(=N)N)NC(=O)[C@H](CC(C)C)NC(=O)[C@H](CO)NC(=O)[C@H](CC(N)=O)NC(=O)[C@H](C)NC(=O)[C@@H](NC(=O)[C@H](CO)NC(=O)[C@H](C)NC(=O)[C@H](CCC(=O)O)NC(=O)[C@H](CO)NC(=O)[C@H](CO)NC(=O)[C@@H](NC(=O)[C@H](CCC(=O)O)NC(=O)[C@H](C)NC(=O)[C@H](CCCCN)NC(=O)[C@H](CC(C)C)NC(=O)[C@@H](NC(=O)[C@H](CCCCN)NC(=O)[C@@H](NC(=O)[C@H](CCCNC(=N)N)NC(=O)[C@H](CCC(N)=O)NC(=O)[C@H](CCC(N)=O)NC(=O)[C@H](CC(C)C)NC(=O)[C@H](CCC(N)=O)NC(=O)[C@H](C)NC(=O)[C@H](C)NC(C)=O)C(C)C)[C@@H](C)O)[C@@H](C)CC)[C@@H](C)O)C(=O)N[C@@H](C)C(=O)N[C@@H](CCC(N)=O)C(=O)N[C@@H](CC(C)C)C(N)=O [Jun(Rh2)] (Ac-AAQLQQRVKTLKAEISSEASTANSLRQQIAQL-NH2; N-terminus and C-terminus assumed)	–	–	–	–	–	–	c-Fos residue modified [3]: Gln19; solubility [4]: poor solubility
N[C@@H](Cc1c[nH]cn1)C(=O)O [His]	–	–	–	–	20	–	% conv. at 24 h [2, 6]: 17^g %; modification of variable residue (in words) [2]: modest conversion
Ac-YGKAAAADAAADKAAAAK-NH2 [DD4]	-5700 deg cm^2 dmol-res^-1	22	41%	25	–	increased helicity	–
N[C@@H](CCC(=O)O)C(=O)O [Glu]	–	–	–	–	130	–	% conv. at 24 h [2, 7]: 76%
Ac-YGKAAAAEAAEAKAAAAK-NH2 [EE3]	-11500 deg cm^2 dmol-res^-1	39	70%	44	–	increased helical	–
Ac-YGKAAAAEAAAEKAAAAK-NH2 [EE4]	-12300 deg cm^2 dmol-res^-1	41	75%	46	–	increased helicity	–
NCCCC[C@H](N)C(=O)O [Lys]	–	–	–	–	20	–	% conv. at 24 h [2, 6]: 8^g %; modification of variable residue (in words) [2]: modest conversion
Max(Rh2): dirhodium metallopeptide based on the leucine-zipper Max (SEQ ID NO: 16) (ARRKNFTFQQNINNLKRQEALLEQQVRAL; also: dirhodium metal complex)	–	–	–	–	–	–	conversion of c-Fos ([3]; 4° C.): 72%; c-Fos residue modified [3]: both Glu14 and Glu21; conversion of c-Fos ([3]; −15° C.): 83%; TM [5]: 20 °C
N[C@@H](CC(=O)O)C(=O)O [Asp]	–	–	–	–	100	–	% conv. at 24 h [2, 7]: 53%; modification of variable residue (in words) [2]: modest conversion
Ac-YGKAAAAEAGEAKAAAAK-NH2 [EE3G]	-2500 deg cm^2 dmol-res^-1	13	24%	15	–	becomes helical	–
